We go through 39 sequences from the supplement of paper PMC7877785.

The series is described as follows: self-splicing fitness, log relative to wild type (ln ratio); higher = more splicing; Tetrahymena group I intron in knt gene, E. coli kanamycin selection, DiMSum; sequences stand for … in CUCUCU…GGAGGGAAAAGUUAUCAGGCAUGCACCUGGUAGCUAGUCUUUAAACCAAUAGAUUGCAUCGGUUUAAAAGGCAAGACCGUCAAAUUGCGGGAAAGGGGUCAACAGCCGUUCAGUACCAAGUCUCAGGGGAAACUUUGAGAUGGCCUUGCAAAGGGUAUGGUAAUAAGCUGACGGACAUGGUCCUAACCACGCAGCCAAGUCCUAAGUCAACAGAUCUUCUGUUGAUAUGGAUGCAGUUCACAGACUAAAUGUCGGUCGGGGAAGAUGUAUUCUUCUCAUAAGAUAUAGUCGGACCUCUCCUUAAUGGGAGCUAGCGGAUGAAGUGAUGCAACACUGGAGCCGCUGGGAACUAAUUUGUAUGCGAAAGUAUAUUGAUUAGUUUUGGAGUACUCGUGGUCG
A digest of the protocol:
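A randomised library covering all eight P1ex-region intron nucleotides was built with the intron in the knt kanamycin-resistance gene on pET-22b(+) and held in E. coli BL21(DE3). Cells were grown overnight at 37°C or 30°C on LB agar, with or without 25 μg/mL kanamycin, plus 100 μg/mL carbenicillin, 50 μM IPTG and 0.2% rhamnose, and pooled colonies were amplicon-sequenced on an Illumina HiSeq 2500. DiMSum fitness is the error-weighted combination of wild-type-normalised replicate fold changes, kanamycin versus none.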

± gives the uncertainty stated by the source.

For AGCCAGCAAUAUUACGCGAG, the “self-splicing fitness (ln)” value is, setting by setting: (30 °C) -1.65 ± 0.13; (37 °C) -1.29 ± 0.16.
CGUGAGCAAUAUUACGCGGC: the “self-splicing fitness (ln)” value was -2.91 ± 0.24 (30 °C) and -3.19 ± 0.28 (37 °C).
The matching figures for CUUUAGCAAUAUUACGAUGG: -1.01 ± 0.1 and -0.752 ± 0.13.
The matching figures for ACACAGCAAUAUUACGUCGU: -2.67 ± 0.11 and -1.58 ± 0.12.
For CCGGAGCAAUAUUACGGGAA, the “self-splicing fitness (ln)” value is, setting by setting: (30 °C) -2.09 ± 0.32; (37 °C) -2.13 ± 0.37.
For the sequence UGGUAGCAAUAUUACGCUUA, the “self-splicing fitness (ln)” value is -0.955 ± 0.18 (30 °C) and -0.553 ± 0.22 (37 °C).
The matching figures for UAACAGCAAUAUUACGGGAG: -2.3 ± 0.1 and -1.62 ± 0.096.
The matching figures for AGGUAGCAAUAUUACGGACG: -1.46 ± 0.015 and -0.546 ± 0.034.
The matching figures for CGGUAGCAAUAUUACGCGAG: -3.58 ± 0.31 and -2.36 ± 0.4.
As for GGUCAGCAAUAUUACGAGGC, the “self-splicing fitness (ln)” value reads like this: (30 °C) -3.61 ± 0.3; (37 °C) -2.84 ± 0.43.
Consider CCUAAGCAAUAUUACGUUUC, for which the “self-splicing fitness (ln)” value is -2.52 ± 0.2 (30 °C) and -2.97 ± 0.27 (37 °C).
For GGUUAGCAAUAUUACGUAUA the same measures were -1.45 ± 0.14 and -1.24 ± 0.19.
The matching figures for ACUUAGCAAUAUUACGGGUG: -1.14 ± 0.059 and -0.754 ± 0.085.
As to ACGUAGCAAUAUUACGGUCU, the “self-splicing fitness (ln)” value is -0.728 ± 0.078 (30 °C) and -0.139 ± 0.097 (37 °C).
In the case of CUGGAGCAAUAUUACGCUGU, the “self-splicing fitness (ln)” value (37 °C) is -3.04 ± 0.48.
For ACAUAGCAAUAUUACGAAGU, the “self-splicing fitness (ln)” value was -2.67 ± 0.21 (30 °C) and -2.85 ± 0.23 (37 °C).
The matching figures for UCUGAGCAAUAUUACGCAUA: -2.73 ± 0.17 and -1.19 ± 0.15.
The matching figures for GUGAAGCAAUAUUACGUGUC: -2.89 ± 0.11 and -1.83 ± 0.12.
On to AAAAAGCAAUAUUACGGAGC, for which the “self-splicing fitness (ln)” value reads like this: (30 °C) -3.4 ± 0.2; (37 °C) -2.1 ± 0.18.
The matching figures for GGAUAGCAAUAUUACGACGU: -0.152 ± 0.28 and -0.257 ± 0.24.
The matching figures for CAACAGCAAUAUUACGUUGG: -2.86 ± 0.096 and -1.5 ± 0.095.
For the sequence CGGGAGCAAUAUUACGCAGU, the “self-splicing fitness (ln)” value (37 °C) is -1.82 ± 0.29.
CUAAAGCAAUAUUACGAACU: the “self-splicing fitness (ln)” value is, setting by setting: (30 °C) -5.08 ± 0.38; (37 °C) -2.04 ± 0.19.
UCCAAGCAAUAUUACGUGAC: the “self-splicing fitness (ln)” value reads like this: (30 °C) -3.7 ± 0.3; (37 °C) -3.17 ± 0.35.
For AGACAGCAAUAUUACGUAAG the same measures were -1.33 ± 0.075 and -0.396 ± 0.088.
Turning to GCAGAGCAAUAUUACGCCGA, the “self-splicing fitness (ln)” value (37 °C) was -0.676 ± 0.34.
With GAACAGCAAUAUUACGACGU, the “self-splicing fitness (ln)” value runs as follows: (30 °C) -0.688 ± 0.064; (37 °C) 0.167 ± 0.077.
The matching figures for GCAGAGCAAUAUUACGAUUG: -4.02 ± 0.28 and -2.95 ± 0.23.
For CACAAGCAAUAUUACGCGUG the same measures were -2.76 ± 0.16 and -2.24 ± 0.22.
As for AAAGAGCAAUAUUACGAGUC, the “self-splicing fitness (ln)” value reads like this: (30 °C) -3.41 ± 0.38; (37 °C) -2.63 ± 0.45.
For GGAAAGCAAUAUUACGUGUU, the “self-splicing fitness (ln)” value is, setting by setting: (30 °C) -2.76 ± 0.11; (37 °C) -1.66 ± 0.12.
As to CAUGAGCAAUAUUACGUUGU, the “self-splicing fitness (ln)” value (30 °C) is -4.13 ± 0.29 and the “self-splicing fitness (ln)” value (37 °C) is -3.57 ± 0.19.
Regarding UUGGAGCAAUAUUACGCUAU, the “self-splicing fitness (ln)” value reads like this: (30 °C) -2.08 ± 0.44; (37 °C) -1.93 ± 0.28.
UUAGAGCAAUAUUACGCGUC: the “self-splicing fitness (ln)” value (30 °C) was -2.56 ± 0.29.
Regarding GAAAAGCAAUAUUACGUCUA, the “self-splicing fitness (ln)” value by setting is: (30 °C) -0.367 ± 0.053; (37 °C) 0.0921 ± 0.066.
CAGCAGCAAUAUUACGUAAA: the “self-splicing fitness (ln)” value by setting is: (30 °C) -3.26 ± 0.14; (37 °C) -1.95 ± 0.15.
The matching figures for AACCAGCAAUAUUACGGAGC: -2.17 ± 0.12 and -1.49 ± 0.13.
The matching figures for UUCAAGCAAUAUUACGAUGC: -3.39 ± 0.45 and -1.85 ± 0.28.
The matching figures for GAGUAGCAAUAUUACGCUAG: -2.38 ± 0.18 and -0.481 ± 0.18.
